Results as given in article doi:10.1101/2024.01.31.578278.

Target: cytochrome c (CytC), recombinant human (human, UniProt P99999 1-105)
Assay: electrochemical aptasensor

Chain of cytochrome c (CytC), recombinant human (P99999 whole entry): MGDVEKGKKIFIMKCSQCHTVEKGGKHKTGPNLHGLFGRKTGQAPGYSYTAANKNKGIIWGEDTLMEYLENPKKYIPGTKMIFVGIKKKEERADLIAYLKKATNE

**Q.** How did the Kd turn out when CCGTGTCTGGGGCCGACCGGCGCATTGGGTACGTTGTTGC (ssDNA, 5' thiol C6 (ThioMC6-D, disulfide reduced); 3' amino modifier (AmMO)) [CytC aptamer] was run?
**A.** 6.19 ± 1.57 ng/mL
